Laboratory results published in article PMC2670981, “Divergence of Catalytic Mechanism within a Glycosidase Family Provides Insight into Evolution of Carbohydrate Metabolism by Human Gut Flora” (Chemistry & Biology, 2008).

B1: BtGH97a (Bacteroides thetaiotaomicron VPI-5482) (protein)
chain: QQKLTSPDNNLVMTFQVDSKGAPTYELTYKNKVVIKPSTLGLELKKEDNTRTDFDWVDRRDLTKLDSKTNLYDGFEVKDTQTATFDETWQPVWGEEKEIRNHYNELAVTLYQPMNDRSIVIRFRLFNDGLGFRYEFPQQKSLNYFVIKEEHSQFGMNGDHIAFWIPGDYDTQEYDYTISRLSEIRGLMKEAITPNSSQTPFSQTGVQTALMMKTDDGLYINLHEAALVDYSCMHLNLDDKNMVFESWLTPDAKGDKGYMQTPCNTPWRTIIVSDDARNILASRITLNLNEPCKIADAASWVKPVKYIGVWWDMITGKGSWAYTDELTSVKLGETDYSKTKPNGKHSANTANVKRYIDFAAAHGFDAVLVEGWNEGWEDWFGNSKDYVFDFVTPYPDFDVKEIHRYAARKGIKMMMHHETSASVRNYERHMDKAYQFMADNGYNSVKSGYVGNIIPRGEHHYGQWMNNHYLYAVKKAADYKIMVNAHEATRPTGICRTYPNLIGNESARGTEYESFGGNKVYHTTILPFTRLVGGPMDYTPGIFETHCNKMNPANNSQVRSTIARQLALYVTMYSPLQMAADIPENYERFMDAFQFIKDVALDWDETNYLEAEPGEYITIARKAKDTDDWYVGCTAGENGHTSKLVFDFLTPGKQYIATVYADAKDADWKENPQAYTIKKGILTNKSKLNLHAANGGGYAISIKEVKDKSEAKGLKRL
B2: BtGH97b (Bacteroides thetaiotaomicron VPI-5482) (protein)
chain: QKQFTLASPDGNLKTTITIGDRLTYDITCNGRQILTPSPISMTLDNGTVWGENAKLSGTSRKSVDEMIPSPFYRASELRNHYNGLTLRFKKDWNVEFRAYNDGIAYRFVNQGKKPFRVVTEVSDYCFPSDMTASVPYVKSGKDGDYNSQFFNSFENTYTTDKLSKLNKQRLMFLPLVVDAGDGVKVCITESDLENYPGLYLSASEGANRLSSMHAPYPKRTVQGGHNQLQMLVKEHEDYIAKVDKPRNFPWRIAVVTTTDKDLAATNLSYLLGAPSRMSDLSWIKPGKVAWDWWNDWNLDGVDFVTGVNNPTYKAYIDFASANGIEYVILDEGWAVNLQADLMQVVKEIDLKELVDYAASKNVGIILWAGYHAFERDMENVCRHYAEMGVKGFKVDFMDRDDQEMTAFNYRAAEMCAKYKLILDLHGTHKPAGLNRTYPNVLNFEGVNGLEQMKWSSPSVDQVKYDVMIPFIRQVSGPMDYTQGAMRNASKGNYYPCYSEPMSQGTRCRQLALYVVFESPFNMLCDTPSNYMREPESTAFIAEIPTVWDESIVLDGKMGEYIVTARRKGDVWYVGGITDWSARDIEVDCSFLGDKSYHATLFKDGVNAHRAGRDYKCESFPIKKDGKLKVHLAPGGGFALKIK

Experiments:
Conditions in all cases: Ca2+
[1] = substrate: OC[C@H]1O[C@H](O[C@H]2[C@H](O)[C@@H](O)C(O)O[C@@H]2CO)[C@H](O)[C@@H](O)[C@@H]1O; test: stopped glucose oxidase/peroxidase assay, Michaelis-Menten (KM) with substrate inhibition; type: biochemical, Bacteroides thetaiotaomicron
[2] = substrate: O=[N+]([O-])c1ccc(O[C@H]2O[C@H](CO)[C@@H](O)[C@H](O)[C@H]2O)cc1; test: Michaelis-Menten kinetics (KM) and 1H NMR of hydrolysis; type: biochemical, Bacteroides thetaiotaomicron
purified protein = substrate: OC[C@H]1O[C@H](OC[C@H]2OC(O)[C@H](O)[C@@H](O)[C@@H]2O)[C@H](O)[C@@H](O)[C@H]1O; test: purified protein
[3] = substrate: O=[N+]([O-])c1ccc(O[C@H]2O[C@H](CO)[C@H](O)[C@H](O)[C@H]2O)cc1; test: Michaelis-Menten kinetics (KM) and 1H NMR of hydrolysis; type: biochemical, Bacteroides thetaiotaomicron

Row | Protein | Km [1] | kcat [1] | kcat/Km [1] | Km [2] | kcat [2] | kcat/Km [2] | Km (purified protein) | kcat (purified protein) | kcat/Km (purified protein) | Km [3] | kcat [3] | kcat/Km [3]
1 | B1 | 2000 ± 400 µM | 0.015 ± 0.002 s⁻¹ | 7.2 M⁻¹ s⁻¹ | 85 ± 9 µM | 53 ± 2 s⁻¹ | 620000 M⁻¹ s⁻¹ | – | – | – | – | – | –
2 | B2 | – | – | – | – | – | – | 1500 ± 170 µM | 0.015 s⁻¹ | 11 M⁻¹ s⁻¹ | 230 ± 10 µM | 91 ± 2 s⁻¹ | 391000 M⁻¹ s⁻¹
